B1: ADC Molecule 4 (1848-H01 FolRα antibody, Y180/F404, Conjugate P) (antibody, V domains shown)
VH: EVQLVESGGGLVQPGGSLRLSCAASGFNIRTQSIHWVRQAPGKGLEWIGDIFPIDGITDYADSVKGRFTISADTSKNTAYLQMNSLRAEDTAVYYCARGSWSWPSGMDYYLDYWGQGTLVTVSS
VL: not shown
modifications: non-natural amino acids at HC-Y180 and HC-F404, each conjugated to the cleavable hemiasterlin linker-drug (Conjugate P); both sites lie in the constant region, outside the VH entry
B2: ADC Molecule 23 (antibody 1848-H01 V262E, Y180/F404, Conjugate P) (antibody, V domains shown)
VH: EVQLVESGGGLVQPGGSLRLSCAASGFNIRTQSIHWVRQAPGKGLEWIGDIFPIDGITDYADSVKGRFTISADTSKNTAYLQMNSLRAEDTAVYYCARGSWSWPSGMDYYLDYWGQGTLVTVSS
VL: not shown
modifications: non-natural amino acid (pAMF) at heavy chain constant sites HC-Y180 and HC-F404 (EU numbering), each conjugated to cleavable hemiasterlin linker-drug (Conjugate P); DAR 3.57
B3: ADC Molecule 4 (antibody, V domains shown)
VH: EVQLVESGGGLVQPGGSLRLSCAASGFNIRTQSIHWVRQAPGKGLEWIGDIFPIDGITDYADSVKGRFTISADTSKNTAYLQMNSLRAEDTAVYYCARGSWSWPSGMDYYLDYWGQGTLVTVSS
VL: not shown
modifications: non-natural amino acids at HC-Y180 and HC-F404 (constant region, outside this VH entry) linked to cleavable hemiasterlin linker-drug (Conjugate P), DAR about 3.7-3.8
B4: ADC Molecule 24 (antibody 1848-H01 V262E, Y180/F404, Conjugate Q) (antibody, V domains shown)
VH: EVQLVESGGGLVQPGGSLRLSCAASGFNIRTQSIHWVRQAPGKGLEWIGDIFPIDGITDYADSVKGRFTISADTSKNTAYLQMNSLRAEDTAVYYCARGSWSWPSGMDYYLDYWGQGTLVTVSS
VL: not shown
modifications: non-natural amino acid (pAMF) at heavy chain constant sites HC-Y180 and HC-F404 (EU numbering), each conjugated to cleavable (ValAla) hemiasterlin linker-drug (Conjugate Q); DAR 3.76

Columns and labels:
Experiment in all cases: cell-based or functional assay
[1] = target: human folate receptor beta (hFolRβ) (human, UniProt P14207 17-230)
[2] = target: human folate receptor alpha (hFolRα) on cells (human, UniProt P15328 25-234)
[3] = target: Human folate receptor alpha (hFOLR1) (human, UniProt P15328 25-234)
[4] = target: human folate receptor alpha (hFOLR1) on cells (human, UniProt P15328 25-234)
Chain of human folate receptor alpha (hFOLR1) on cells (P15328 25-234 limits assumed): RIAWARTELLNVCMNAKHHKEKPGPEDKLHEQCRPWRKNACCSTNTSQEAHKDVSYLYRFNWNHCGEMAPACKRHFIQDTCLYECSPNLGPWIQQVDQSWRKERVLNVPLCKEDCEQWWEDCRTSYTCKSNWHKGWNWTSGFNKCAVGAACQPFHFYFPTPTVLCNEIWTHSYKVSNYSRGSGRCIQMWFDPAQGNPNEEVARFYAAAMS

Chain of Human folate receptor alpha (hFOLR1) (P15328 25-234 limits assumed): as above
Chain of human folate receptor alpha (hFolRα) on cells (P15328 25-234 limits assumed): as above
Chain of human folate receptor beta (hFolRβ) (P14207 17-230): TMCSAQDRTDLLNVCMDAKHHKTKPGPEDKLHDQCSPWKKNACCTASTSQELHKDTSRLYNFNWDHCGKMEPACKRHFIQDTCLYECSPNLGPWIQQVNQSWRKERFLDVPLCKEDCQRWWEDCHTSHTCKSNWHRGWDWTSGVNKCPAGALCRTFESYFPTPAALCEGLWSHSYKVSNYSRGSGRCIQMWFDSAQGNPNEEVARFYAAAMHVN

Binder | Cell Killing (Igrov1) EC50 [3] | Cell Killing (Igrov1) Span [3] | also measured
B1 | – | – | cytotoxic activity on 293T cells expressing FolRβ, EC50 [1]: ~100 nM; cytotoxic activity on 293T cells expressing FolRα, EC50 [2]: < 10 nM
B2 | 0.088 nM | 72% | –
B3 | – | – | cytotoxic activity on Igrov1 cells in the presence of 0.5 µM un-conjugated 1848-H01, EC50 [4]: > 33 nM; cytotoxic activity on OVCAR3 cells in the presence of 0.5 µM un-conjugated 1848-H01, EC50 [4]: > 33 nM
B4 | 0.19 nM | 56% | –

Source: patent US20220047716A1 (SUTRO BIOPHARMA, published 2022)
